Data on 2 molecules can be found in PMC2504306 (Nucleic Acids Research, 2008).

A word on the Kd: it is a measure of binding affinity in units of concentration. As a reminder, the koff is the rate constant with which the complex falls apart. Lower therefore signals a long-lived complex. A word on the kon: it is a measure of how fast the partners come together. Lower therefore signals slower complex formation.

Like-named read-outs stand apart in the source and are kept apart here.

Holding throughout (test): SPR
For orientation: In SPR one partner is held on a chip, and binding of the other changes the refractive index at the surface.

The target in test [1] is C-terminal topoisomerase domain of Sulfolobus solfataricus reverse gyrase TopR1 (Sulfolobus solfataricus P2) (UniProt Q97ZZ8).
The target in test [2] is T1, C-terminal topoisomerase domain of Sulfolobus solfataricus reverse gyrase TopR1 (Sulfolobus solfataricus P2, UniProt Q97ZZ8 605-1242).
T1 sequence (looked up): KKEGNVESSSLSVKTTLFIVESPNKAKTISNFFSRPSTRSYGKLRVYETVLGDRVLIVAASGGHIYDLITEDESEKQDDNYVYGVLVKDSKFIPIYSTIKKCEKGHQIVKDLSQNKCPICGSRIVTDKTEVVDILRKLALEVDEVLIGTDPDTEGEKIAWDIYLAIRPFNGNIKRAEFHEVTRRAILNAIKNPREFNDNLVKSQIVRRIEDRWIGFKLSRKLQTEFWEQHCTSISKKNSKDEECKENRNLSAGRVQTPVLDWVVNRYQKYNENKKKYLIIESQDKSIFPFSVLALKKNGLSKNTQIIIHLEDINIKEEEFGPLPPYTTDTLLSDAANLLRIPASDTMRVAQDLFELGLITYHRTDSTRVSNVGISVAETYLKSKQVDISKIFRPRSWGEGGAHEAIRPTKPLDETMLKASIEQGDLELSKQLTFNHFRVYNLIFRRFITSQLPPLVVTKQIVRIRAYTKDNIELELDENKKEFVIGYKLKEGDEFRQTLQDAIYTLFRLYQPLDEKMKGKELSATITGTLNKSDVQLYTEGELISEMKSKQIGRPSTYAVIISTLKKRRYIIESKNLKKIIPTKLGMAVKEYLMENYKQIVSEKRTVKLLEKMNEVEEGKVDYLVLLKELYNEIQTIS

Test [3] addresses T1, C-terminal topoisomerase domain of …. The source holds these as a separate data set.
Test [4] shares this target. This is another data set of the same source.

For “non-specific DNA-binding protein Smj12 of S. solfataricus (natural protein)”, in test [1], the Ka was determined as 284 M⁻¹, the Kd came out at 3530 µM, the off-rate (koff) worked out at 0.00313 s⁻¹ and the kon worked out at 0.887 M⁻¹ s⁻¹.

B1: N-terminal ATPase (helicase-like) domain of Sulfolobus solfataricus reverse gyrase TopR1 (domain or fragment, Sulfolobus solfataricus P2, UniProt Q97ZZ8 1-607, looked up)
chain: MTSINKVPPSIYTRSCPNCGGNISSQRLFNGSVCESCLKDDREFSNLSDLINILSENSNLKNLTQIRDVLEEYKKVEEIFGKLLNNSKPIGPQRSWTIRFLRGESFAIIAPPGLGKTTFGLIMSLYNATRNRKSIIIFPTRTLISQTVDKLAKFSELYSYSPRILYNKQSPTQTENILDQLKSGNFDIFISTNRFVIQNLSELSNIKFDFIFVDDVDAALKSGKSAKAILRLVGFTDEDIQTTMKLLRENIGEEEKFGKIQEIRESRLKDKIVIFSSATISRGNPILSSLMGFRPGSSVIYLRNIYDSYIDLTQTCKGQDFEECTLGTVIKLLKRLNDGTLIFVPIDKGAQYADYLASNLRDHGINVESVASSSISKLEKFERGEVSSLVGVATHYGVLVRGIDLPWRVKYSIFVGIPKFKFKIGEYMHPLALTRLLSLVYLVKNDDKVRGLLSYIRKRLRKISPAALAMLAKDIREGKIDDERLKEAYNLVNEYLKDNEFLKKVSDVGDLVIEGDYILMPDYLTYIQASGRTSRLYGANLTTGLSVLLIDNSRLFELLNKKLNLILDEVKWYSLDIDADKLGQVSLSDISAKITEERESLSKIKKE
In test [2], B1 came in with a Ka of 2.87e+06 M⁻¹, a Kd of 0.349 µM, a koff of 0.00152 s⁻¹ and a kon of 4350 M⁻¹ s⁻¹. In test [3], the Ka is 6.32e+06 M⁻¹, the Kd stood at 0.158 µM, the koff was determined as 0.00109 s⁻¹ and the kon is 6900 M⁻¹ s⁻¹. Moreover, in test [4], the Ka amounted to 7.59e+06 M⁻¹, binding was characterised by a dissociation constant (Kd) of 0.132 µM, the koff is 0.00187 s⁻¹ and the kon was 14200 M⁻¹ s⁻¹.
